Data as given in PMC10542344 (2023).
Where two headings read alike, the source gives them in different places.

Columns and labels:
Assay in all cases: SPR
[1] = target: T1, human IL-17A (recombinant) (human, UniProt Q16552 24-155)
[2] = target: T1, human IL-17A (recombinant); remark: listed apart in the source
[3] = target: T1, human IL-17A (recombinant); remark: listed apart in the source

T1 sequence (Q16552 24-155): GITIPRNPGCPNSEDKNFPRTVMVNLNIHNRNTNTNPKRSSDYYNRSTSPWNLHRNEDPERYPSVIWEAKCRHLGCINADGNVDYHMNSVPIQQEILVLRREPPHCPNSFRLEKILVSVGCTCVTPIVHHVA

Kd [1] [nM]	koff [2] [s⁻¹]	koff [3] [s⁻¹]	Binder
2.61	0.0045		BDG11.007 (human IgG1) (antibody, V domains shown) VH: EVQLVQSGAEVKKPGESLKISCKGSGYSFTSYWIGWVRQMPGKGLEWMGIIYPSDSDTRYSPSFQGQVTISADKSISTAYLQWSSLKASDTAMYYCARYPNYGAFDIWGQGTMVTVSS VL: EIVLTQSPATLSLSPGERATLSCRASQSVWSYLAWYQQKPGQAPRLLIYDASNRATGIPARFSGSGSGTDFTLTISSLEPEDFAVYYCQQYFNWGWPFGQGTKLEIK
0.935	0.000641		BDG11.003 (human IgG1) (antibody, V domains shown) VH: EVQLVQSGAEVKKPGESLKISCKGSGYSFTSYWIGWVRQMPGKGLEWMGIIYPSDSDTRYSPSFQGQVTISADKSISTAYLQWSSLKASDTAMYYCARYPNYGAFDIWGQGTMVTVSS VL: EIVLTQSPATLSLSPGERATLSCRASQSVFSYLAWYQQKPGQAPRLLIYDASNRATGIPARFSGSGSGTDFTLTISSLEPEDFAVYYCQQYFYWGWPFGQGTKLEIK
		0.000634	BDG11.001 (clone 11.4C_11.001 as soluble human IgG1) (antibody, V domains shown) VH: EVQLVQSGAEVKKPGESLKISCKGSGYSFTSYWIGWVRQMPGKGLEWMGIIYPSDSDTRYSPSFQGQVTISADKSISTAYLQWSSLKASDTAMYYCARYPNYGAFDIWGQGTMVTVSS VL: EIVLTQSPATLSLSPGERATLSCRASQSVWSYLAWYQQKPGQAPRLLIYDASNRATGIPARFSGSGSGTDFTLTISSLEPEDFAVYYCQQYFYWGWPFGQGTKLEIK
8.69	0.00221		BDG11.004 (human IgG1) (antibody, V domains shown) VH: EVQLVQSGAEVKKPGESLKISCKGSGYSFTSYWIGWVRQMPGKGLEWMGIIYPSDSDTRYSPSFQGQVTISADKSISTAYLQWSSLKASDTAMYYCARYPNYGAFDIWGQGTMVTVSS VL: EIVLTQSPATLSLSPGERATLSCRASQSVSSYLAWYQQKPGQAPRLLIYDASNRATGIPARFSGSGSGTDFTLTISSLEPEDFAVYYCQQYFYWGWPFGQGTKLEIK
0.697	0.0009		BDG11.006 (human IgG1) (antibody, V domains shown) VH: EVQLVQSGAEVKKPGESLKISCKGSGYSFTSYWIGWVRQMPGKGLEWMGIIYPSDSDTRYSPSFQGQVTISADKSISTAYLQWSSLKASDTAMYYCARYPNYGAFDIWGQGTMVTVSS VL: EIVLTQSPATLSLSPGERATLSCRASQSVWSYLAWYQQKPGQAPRLLIYDASNRATGIPARFSGSGSGTDFTLTISSLEPEDFAVYYCQQYFYNGWPFGQGTKLEIK
